Results on 2 molecules are retold here after patent publication US20260022175A1 (Chugai, published 2026).

Assay [1] concerns the target T1, human FcγRIIb extracellular domain with C-terminal His-tag (human, UniProt P31994 43-217).
T1 construct: extracellular domain; also called hFcγR IIb
T1 sequence (looked up): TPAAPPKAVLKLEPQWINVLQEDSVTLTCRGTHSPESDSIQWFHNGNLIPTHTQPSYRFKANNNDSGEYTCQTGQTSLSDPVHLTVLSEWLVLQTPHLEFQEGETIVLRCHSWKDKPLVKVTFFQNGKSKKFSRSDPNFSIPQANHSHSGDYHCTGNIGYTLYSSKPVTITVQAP
Description: SPR; FcγRIIb at 1000 nM, bound amount per unit captured Ab.

The target in assay [2] is T1, human FcγRIIb extracellular domain with …. Nature of the assay: SPR; binding amount divided by that of 04H1637-G1m/04L1610-lam1. On the technique in general: Surface plasmon resonance follows binding to a sensor surface in real time, without labels.
For assay [3], the target named is T2, human FcγRIIa H allotype extracellular domain with C-terminal His-tag (human, UniProt P12318 34-217).
T2 construct: extracellular domain; also called hFcγR IIa H
T2 sequence (looked up): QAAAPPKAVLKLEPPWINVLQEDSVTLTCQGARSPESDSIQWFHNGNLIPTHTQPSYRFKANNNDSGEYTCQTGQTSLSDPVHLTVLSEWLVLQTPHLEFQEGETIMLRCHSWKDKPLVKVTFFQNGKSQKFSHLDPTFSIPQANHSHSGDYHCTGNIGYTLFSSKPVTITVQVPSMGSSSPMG
Nature of the assay: SPR Biacore T200, Ab captured via Fab-lambda, pH 7.4, 25C.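 Further: antibodies captured on a streptavidin chip carrying biotinylated anti-Fab-lambda, with each FcγR injected as analyte in phosphate buffer. KD fitted by 1:1 Langmuir or steady-state model depending on receptor.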

Assay [4] addresses T3, human FcγRIIIa V allotype extracellular domain with C-terminal His-tag (human, UniProt P08637 17-208).
T3 construct: extracellular domain; also called hFcγR IIIa V
The assay is described as above.

In assay [5] the target is T4, human FcγRIa extracellular domain with C-terminal His-tag (human, UniProt P12314 16-292).
T4 construct: extracellular domain; also called hFcγR Ia; hFcγRIa
T4 sequence (P12314 16-292): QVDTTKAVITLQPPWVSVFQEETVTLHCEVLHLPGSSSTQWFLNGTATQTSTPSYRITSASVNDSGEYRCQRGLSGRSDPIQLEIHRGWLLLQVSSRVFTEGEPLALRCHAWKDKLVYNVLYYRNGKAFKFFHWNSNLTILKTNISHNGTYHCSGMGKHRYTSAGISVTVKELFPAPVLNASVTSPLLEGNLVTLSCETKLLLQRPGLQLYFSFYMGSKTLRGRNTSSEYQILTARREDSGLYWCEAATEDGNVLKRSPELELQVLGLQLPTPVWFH
The description is as above.

Assay [6] deals with T5, human FcγRIIa R allotype extracellular domain with C-terminal His-tag (human, UniProt P12318 34-217).
T5 construct: extracellular domain; also called hFcγR IIa R
T5 sequence (looked up): T2 sequence (looked up) with H134R
The assay is described as above.

The target of assay [7] is T6, human FcγRIIIa F allotype extracellular domain with C-terminal His-tag (human, UniProt P08637 17-208).
T6 construct: extracellular domain; also called hFcγR IIIa F
T6 sequence (P08637 17-208): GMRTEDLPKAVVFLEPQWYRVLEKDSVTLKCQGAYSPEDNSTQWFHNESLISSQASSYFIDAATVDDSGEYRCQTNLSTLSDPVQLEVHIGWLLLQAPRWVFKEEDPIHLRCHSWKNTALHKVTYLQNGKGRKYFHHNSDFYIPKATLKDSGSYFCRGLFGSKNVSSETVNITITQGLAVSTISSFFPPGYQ
The description is as above.

Assay [8] addresses T2, human FcγRIIa H allotype extracellular …. Description: SPR; KD of 04H1637-G1m/04L1610-lam1 divided by KD of variant.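 Further: biacore T200 SPR at 25 °C, antibodies captured on anti-Fab-lambda SA chip with receptor as analyte, running buffer pH 7.4 for FcγRs and pH 6.0 for FcRn.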
Description: (§1) The interaction between the generated antibodies and human FcγRs was analyzed by the following method using Biacore T200. 50 mM Na-Phosphate, 150 mM NaCl, 0.05% Tween20 (pH 7.4) was used as the running buffer, and the assay was performed at 25° C. For the sensor chips, Series S SA (GE Healthcare) chips onto which CaptureSelect Human Fab-lambda Kinetics Biotin Conjugate (Thermo Fisher Scientific) was immobilized were used. The antibodies of interest were captured onto these chips and each FcγR diluted in the running buffer was allowed to interact with them. Chips were regenerated with 10 mM Glycine-HCl (pH 1.5) and 25 mM NaOH, and assay was performed by repeatedly capturing antibodies. The dissociation constants KD (mol/L) for FcγRs of each antibody were calculated using Biacore T200 Evaluation Software 2.0, using the 1:1 Langmuir binding model for FcγRIa and FcγRIIIa and the steady state affinity model for FcγRIIa. For FcγRIIb, the binding amount of FcγRIIb per unit amount of antibody was calculated by correcting the binding amount of FcγRIIb obtained from the sensorgram obtained by the measurement with the amount of antibody captured onto the chip surface.
(§2) The interaction between the generated antibodies and human FcRn was analyzed by the following method using Biacore T200. 50 mM Na-Phosphate, 150 mM NaCl, 0.05% Tween20 (pH 6.0) was used as the running buffer, and the assay was performed at 25° C. For the sensor chip, Series S SA (GE Healthcare) chips onto which CaptureSelect Human Fab-lambda Kinetics Biotin Conjugate (Thermo Fisher Scientific) was immobilized were used. The antibodies of interest were captured onto these chips and FcRn diluted in the running buffer was allowed to interact with them. Chips were regenerated with 10 mM Glycine-HCl (pH 1.5) and 25 mM NaOH, and assay was performed by repeatedly capturing antibodies. The dissociation constant for FcRn of each antibody was calculated using the steady state model, using Biacore T200 Evaluation Software 2.0.
Assay [9] has as its target T3, human FcγRIIIa V allotype extracellular …. The description is as above.
Description: as §1, §2
Assay [10] concerns the target T4, human FcγRIa extracellular domain with …. Described as above.
Description: as §1, §2
The target of assay [11] is T5, human FcγRIIa R allotype extracellular …. The description is as above.
Description: as §1, §2
The target in assay [12] is T6, human FcγRIIIa F allotype extracellular …. Described as above.
Description: as §1, §2

Residue numbers refer to the chain shown, from its start.

T3 sequence (P08637 17-208 F176V): as the sequence (P08637 17-208) above, with F160V counted along it

B1: 04H1637-Kn461/04L1610-lam1//04H1637-Hl443/04L1610-lam1 (antibody, human IgG1, lambda)
heavy 1: QVQLVESGGGLVKPGGSLRLSCAASGFTFSSKTMNWVRQAPGKGLEWVSSISTQSHYIYYAESVRGRFTISRDNAKNSLYLQMNSLRAEDTAVYYCARYGKREDMLWVFDYWGQGTLVTVSSASTKGPSVFPLAPSSKSTSGGTAALGCLVKDYFPEPVTVSWNSGALTSGVHTFPAVLQSSGLYSLSSVVTVPSSSLGTQTYICNVNHKPSNTKVDKKVEPKSCDKTHTCPPCPAPEFQWGPMVFLFPPKPKDVLMISRTPEVTCVVVDVSDEEPEVKFNWYVDGVEVHNAKTKPREEQYNATYRVVSVLPVLHQDWLNGKEYKCKVSNDALPAPEEKTISKAKGQPREPQVCTLPPSRDELTKNQVSLWCLVKGFYPSDIAVEWESNGQPENNYKTTPPVLDSDGSFFLYSKLTVDKSRWQQGNVFSCSVMHEALHNHYTQKSLSLSP
heavy 2: QVQLVESGGGLVKPGGSLRLSCAASGFTFSSKTMNWVRQAPGKGLEWVSSISTQSHYIYYAESVRGRFTISRDNAKNSLYLQMNSLRAEDTAVYYCARYGKREDMLWVFDYWGQGTLVTVSSASTKGPSVFPLAPSSKSTSGGTAALGCLVKDYFPEPVTVSWNSGALTSGVHTFPAVLQSSGLYSLSSVVTVPSSSLGTQTYICNVNHKPSNTKVDKKVEPKSCDKTHTCPPCPAPELLAGPSVFLFPPKPKDVLMISRTPEVTCVVVDVSHEEPEVKFNWYVDGVEVHNAKTKPREEQYNATYRVVSVLPVLHQDWLNGKEYKCKVSNDALPAPEEETISKAKGQPREPQVYTLPPSRCELTKNQVSLSCAVKGFYPSDIAVEWESNGQPENNYKTTPPVLDSDGSFFLVSKLTVDKSRWQQGNVFSCSVMHEALHNHYTQKSLSLSP
light: QSALTQPPSASGSPGQSVTISCEGPSTGVGDYNWVHWYQQHPGKAPKLMIYFTSKKPSGVPDRFSGSKSGNTASLTVSGLQAEDEADYYCQTYAAPLGPMFGGGTKLTVLGQPKAAPSVTLFPPSSEELQANKATLVCLISDFYPGAVTVAWKADSSPVKAGVETTTPSKQSNNKYAASSYLSLTPEQWKSHRSYSCQVTHEGSTVEKTVAPTECS
notes: Heterodimerized antibody; also called 04H1637-Kn461/04L1610-lam1//04H1637-H1443/04L1610-lam1
A word on the Kd: it is the concentration at which binding is half-saturated. For the molecule B1, the Binding amount in assay [1] was 0.025. The same molecule came in with a Relative binding amount in [2] of 3.1. The Kd is 130 nM in assay [3]; 1.1 nM in assay [4]; 0.042 nM in assay [5]; 190 nM in [6]; 2.2 nM in assay [7]. In addition, the “Relative value to KD between G1m and hFcγRs” value is 11.1 in assay [8]; 226 in assay [9]; 1.2 in assay [10]; 10.7 in [11]; 616 in assay [12].

B2: 04H1637-Kn462/04L1610-lam1//04H1637-Hl445/04L1610-lam1 (antibody, human IgG1, lambda)
heavy 1: B1 heavy 1 with E337I
heavy 2: B1 heavy 2 with A335K, E337D
light: B1 light
notes: Heterodimerized antibody; also called 04H1637-Kn462/04L1610-lam1//04H1637-H1445/04L1610-lam1
B2 gave a Binding amount in [1] of 0.03. The molecule further showed a Relative binding amount in assay [2] of 3.7. For the same molecule, the Kd in [3] came to 39 nM; in [4] it was 1.8 nM; in assay [5] it was 0.076 nM; in assay [6], 110 nM; in assay [7] it was 3.6 nM. Besides, the “Relative value to KD between G1m and hFcγRs” value in [8] turned out to be 37.5; in assay [9] it was 131; in assay [10], 0.6; in assay [11], 18.7; in assay [12], 382.
